In paper PMC7596504, “Molecular mechanism of the MORC4 ATPase activation” (Nature Communications, 2020) one finds K half data, which are given here for four substances.

For one series, the system named is LexA. Description: FRET. The settings on record: EMSA DNA: 20 mM Tris-HCl pH 7.5, 150 mM NaCl, 2.5 mM MgCl2, 2 mM DTT, on ice, EMSA NCP: 25 mM Tris-HCl pH 7.5, 75 mM NaCl, 0.005% Tween 20, 10% glycerol, 4 C …. On the technique in general: In EMSA bound probe runs differently from free probe, usually more slowly.
The subject of series [1] is MORC4 ATPase domain (Homo sapiens). Description: fluorescence polarization. Conditions: EMSA DNA: 20 mM Tris-HCl pH 7.5, 150 mM NaCl, 2.5 mM MgCl2, 2 mM DTT, on ice; EMSA NCP: 25 mM Tris-HCl pH 7.5, 75 mM NaCl, 0.005% Tween 20, 10% glycerol, 4 C …. Background: In fluorescence polarisation assays a small probe gives low polarisation when free and higher when bound to something large.

For series [2], the system named is MORC4 ATPaseCW (Homo sapiens). As to the kind of experiment: fluorescence polarization. Conditions: EMSA DNA: 20 mM Tris-HCl pH 7.5, 150 mM NaCl, 2.5 mM MgCl2, 2 mM DTT, on ice; EMSA NCP: 25 mM Tris-HCl pH 7.5, 75 mM NaCl, 0.005% Tween 20, 10% glycerol, 4 C ….
The test system of a further series is Gal4 DNA-binding domain. Description: FRET. Conditions: EMSA DNA: 20 mM Tris-HCl pH 7.5, 150 mM NaCl, 2.5 mM MgCl2, 2 mM DTT, on ice, EMSA NCP: 25 mM Tris-HCl pH 7.5, 75 mM NaCl, 0.005% Tween 20, 10% glycerol, 4 C ….

Consider NCP147 LexA, for which the K half in the series on LexA (1 uM MORC4 ATPaseCW) was 2400 nM; with LexA (no MORC4), 900 nM.
Take NCP207: the values for the K half in series [1] and in series [2] were 500 nM and 200 nM, respectively.
On to NCP252 Gal4, for which the K half in the series with Gal4 DNA-binding domain (no MORC4) came to 20 nM; with Gal4 DNA-binding domain (saturating MORC4 ATPaseCW, 0.3 mM ATP), 100 nM; in the series with Gal4 DNA-binding domain (saturating MORC4 ATPaseCW, no ATP), 40 nM.
In the case of NCP147, the results for the K half in series [1] and in series [2] were 2300 nM and 400 nM, respectively.
